# B1: JR-FL gp120 (natural protein)
# chain: not shown
# Target: monomeric sCD4 (D1D2)
# Assay: SPR
binder,measurement,value
B1,Kd,12 nM

# Reference: PMC3044691 (2011)
